# Results published in patent US20250161472A1 (BIOATLA, published 2025).
# Where a chain is given by its changes, count along the chain named.
# B1: HC-A097I (antibody, V domains shown)
# VH: EVQLQQSGPELVKPGASVKISCKTSGYTFTEYTMHWMKQSHRKSLEWIGGINTNNGGTGYNQKFKGKATLTVDKSSSTAYMELRSLTSEDSAVYFCIRGSLYSYGNSYFDYWGQGTLVTVSS
# VL: QIVLTQSPAIMSASPGEKVTITCSATSSVSYMHWFQQKPGTSPKLWIYGTSNLASGVPARFSGSGSGTSYSLTISRMEAEDAATYYCQQRSSYPFTFGQGTKVEIK
# notes: CPE single point mutant of parent VH 48.6-HC-WT
# B2: HC-S103G (antibody, V domains shown)
# VH: B1 VH with I97A, S103G
# VL: B1 VL
# notes: as for B1
# B3: HC-R098Q (antibody, V domains shown)
# VH: B1 VH with I97A, R98Q
# VL: B1 VL
# notes: as for B1
# B4: HC-R098H (antibody, V domains shown)
# VH: B1 VH with I97A, R98H
# VL: B1 VL
# notes: as for B1
# B5: HC-N052C (antibody, V domains shown)
# VH: B1 VH with N52C, I97A
# VL: B1 VL
# notes: as for B1
# B6: HC-N052V (antibody, V domains shown)
# VH: B1 VH with N52V, I97A
# VL: B1 VL
# notes: as for B1
# B7: HC-M034Y (antibody, V domains shown)
# VH: B1 VH with M34Y, I97A
# VL: B1 VL
# notes: as for B1
# B8: HC-T053D (antibody, V domains shown)
# VH: B1 VH with T53D, I97A
# VL: B1 VL
# notes: as for B1
# B9: HC-G099E (antibody, V domains shown)
# VH: B1 VH with I97A, G99E
# VL: B1 VL
# notes: as for B1
# B10: HC-A097S (antibody, V domains shown)
# VH: B1 VH with I97S
# VL: B1 VL
# notes: as for B1
# B11: HC-L101F (antibody, V domains shown)
# VH: B1 VH with I97A, L101F
# VL: B1 VL
# notes: as for B1
# B12: HC-D110L (antibody, V domains shown)
# VH: B1 VH with I97A, D110L
# VL: B1 VL
# notes: as for B1
# B13: HC-M034D (antibody, V domains shown)
# VH: B1 VH with M34D, I97A
# VL: B1 VL
# notes: as for B1
# B14: HC-N052L (antibody, V domains shown)
# VH: B1 VH with N52L, I97A
# VL: B1 VL
# notes: as for B1
# B15: HC-F029E (antibody, V domains shown)
# VH: B1 VH with F29E, I97A
# VL: B1 VL
# notes: as for B1
# B16: HC-W112L (antibody, V domains shown)
# VH: B1 VH with I97A, W112L
# VL: B1 VL
# notes: as for B1
# B17: HC-T033C (antibody, V domains shown)
# VH: B1 VH with T33C, I97A
# VL: B1 VL
# notes: as for B1
# B18: HC-Y032D (antibody, V domains shown)
# VH: B1 VH with Y32D, I97A
# VL: B1 VL
# notes: as for B1
# B19: HC-T053E (antibody, V domains shown)
# VH: B1 VH with T53E, I97A
# VL: B1 VL
# notes: as for B1
# B20: HC-I051E (antibody, V domains shown)
# VH: B1 VH with I51E, I97A
# VL: B1 VL
# notes: as for B1
# B21: HC-Y111C (antibody, V domains shown)
# VH: B1 VH with I97A, Y111C
# VL: B1 VL
# notes: as for B1
# B22: HC-Y111T (antibody, V domains shown)
# VH: B1 VH with I97A, Y111T
# VL: B1 VL
# notes: as for B1
# B23: HC-M034E (antibody, V domains shown)
# VH: B1 VH with M34E, I97A
# VL: B1 VL
# notes: as for B1
# B24: HC-A097M (antibody, V domains shown)
# VH: B1 VH with I97M
# VL: B1 VL
# notes: as for B1
# B25: HC-A097T (antibody, V domains shown)
# VH: B1 VH with I97T
# VL: B1 VL
# notes: as for B1
# B26: HC-G105D (antibody, V domains shown)
# VH: B1 VH with I97A, G105D
# VL: B1 VL
# notes: as for B1
# B27: HC-G050S (antibody, V domains shown)
# VH: B1 VH with G50S, I97A
# VL: B1 VL
# notes: as for B1
# B28: LC-G049C (antibody, V domains shown)
# VH: B1 VH with I97A
# VL: B1 VL with G49C
# notes: CPE single point mutant of parent VL 48.6-LC-WT
# B29: LC-H033G (antibody, V domains shown)
# VH: B1 VH with I97A
# VL: B1 VL with H33G
# notes: as for B28
# B30: LC-Q089E (antibody, V domains shown)
# VH: B1 VH with I97A
# VL: B1 VL with Q89E
# notes: as for B28
# B31: LC-G049P (antibody, V domains shown)
# VH: B1 VH with I97A
# VL: B1 VL with G49P
# notes: as for B28
# B32: LC-H033L (antibody, V domains shown)
# VH: B1 VH with I97A
# VL: B1 VL with H33L
# notes: as for B28
# B33: LC-R090H (antibody, V domains shown)
# VH: B1 VH with I97A
# VL: B1 VL with R90H
# notes: as for B28
# B34: LC-G049H (antibody, V domains shown)
# VH: B1 VH with I97A
# VL: B1 VL with G49H
# notes: as for B28
# B35: LC-F097E (antibody, V domains shown)
# VH: B1 VH with I97A
# VL: B1 VL with F97E
# notes: as for B28
# Molecular target: T1, human ROR2 (receptor tyrosine kinase-like orphan receptor 2) (human, UniProt Q01974 34-403, limits assumed)
# T1 construct: Antigen of the ELISA, SPR and pH titration assays; also called hROR2
# Test: affinity ELISA on human ROR2, pH 7.4
# Design: unit not given here
# T1 sequence (Q01974 34-403 limits assumed): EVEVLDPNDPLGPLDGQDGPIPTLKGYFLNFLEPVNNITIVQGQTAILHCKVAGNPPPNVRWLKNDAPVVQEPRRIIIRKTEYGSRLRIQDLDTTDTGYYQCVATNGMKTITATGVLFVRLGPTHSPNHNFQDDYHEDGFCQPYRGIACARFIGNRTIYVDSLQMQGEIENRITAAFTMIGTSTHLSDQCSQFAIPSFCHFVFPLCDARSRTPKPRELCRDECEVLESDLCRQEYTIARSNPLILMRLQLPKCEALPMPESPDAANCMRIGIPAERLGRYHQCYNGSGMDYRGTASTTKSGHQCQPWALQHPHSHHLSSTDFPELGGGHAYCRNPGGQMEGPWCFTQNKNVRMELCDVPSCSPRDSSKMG
row,Binder,"Affinity ELISA, pH 7.4"
1,B1,1.73
2,B2,0.655
3,B3,0.276
4,B4,0.353
5,B5,0.431
6,B6,0.34
7,B7,0.391
8,B8,0.222
9,B9,0.421
10,B10,1.69
11,B11,1.41
12,B12,1.4
13,B13,0.211
14,B14,0.433
15,B15,0.742
16,B16,1.7
17,B17,0.232
18,B18,0.51
19,B19,0.157
20,B20,0.1
21,B21,0.793
22,B22,1.4
23,B23,0.185
24,B24,1.7
25,B25,1.69
26,B26,0.379
27,B27,0.318

# Molecular target: T1, human ROR2 (receptor tyrosine …)
# Test: affinity ELISA on human ROR2, pH 7.4
# Design: unit not given here
# Remark: another data set of the same source
row,Binder,"Affinity ELISA, pH 7.4"
1,B28,0.133
2,B29,0.536
3,B30,0.251
4,B31,0.268
5,B32,0.332
6,B33,0.256
7,B34,0.118
8,B35,0.215

# Molecular target: T1, human ROR2 (receptor tyrosine …)
# Test: affinity ELISA on human ROR2, pH 6.0
# Design: unit not given here
row,Binder,"Affinity ELISA, pH 6.0"
1,B1,1.89
2,B2,0.794
3,B3,0.799
4,B4,0.928
5,B5,0.995
6,B6,0.87
7,B7,0.903
8,B8,1.11
9,B9,0.616
10,B10,1.67
11,B11,1.46
12,B12,1.68
13,B13,1.24
14,B14,0.911
15,B15,1.34
16,B16,1.75
17,B17,0.626
18,B18,1.47
19,B19,0.54
20,B20,1.04
21,B21,1.08
22,B22,1.86
23,B23,1.17
24,B24,1.98
25,B25,1.83
26,B26,0.509
27,B27,0.828

# Molecular target: T1, human ROR2 (receptor tyrosine …)
# Test: affinity ELISA on human ROR2, pH 6.0
# Design: unit not given here
# Remark: another data set of the same source
row,Binder,"Affinity ELISA, pH 6.0"
1,B28,0.468
2,B29,1.1
3,B30,0.438
4,B31,0.66
5,B32,0.69
6,B33,0.56
7,B34,1.87
8,B35,0.489
